# Assay results from publication PMC5614565.
# pKd: −log10 of the molar value.
# Experiments:
# [1] = biological target: mCherry-(GGS)6-Rac1(1-188)-His8 (UniProt P63000); experiment: membrane recruitment assay on supported lipid bilayers (TIRF microscopy); settings: mCherry-Rac1 Q61L/P29S-His8 anchored on bilayers containing 2% Ni2+-NTA-DGS lipid; parent: est. 0.72; read off a plot
# [2] = biological target: GST-Rac1(1-188) (Q61L/P29S) (UniProt P63000); experiment: other; GST-dimer model, KD,1; settings: complex; chains chain;chain;chain;chain;chain
# [3] = biological target: GST-Rac1(1-188) (Q61L/P29S) (UniProt P63000); experiment: pull-down; equilibrium pull-down (EPD): 0.1 μM ΔWRC230, 0.01 to 140 μM GST-Rac1(1-188) (Q61L/P29S), Glutathione Sepharose; 20 mM HEPES pH 7, 100 mM NaCl, 5% glycerol, 2 mM MgCl2, 5 mM β-mercaptoethanol, 0.05% Triton X100; 4°C, 30 min; unbound WRC in the supernatant quantified by SDS-PAGE; fits in DynaFit
# [4] = biological target: GST-Rac1(1-188) (Q61L/P29S) (UniProt P63000); experiment: other; GST-dimer model, KD,2 (second WRC); settings: complex; chains chain;chain;chain;chain;chain
# [5] = biological target: EGFP-tagged WRC, wild type (Sra1, Nap1, MBP-EGFP-HSPC300, MBP-Abi2(1-158), MBP-WAVE1(1-230)), Q7L576;Q9Y2A7;Q8WUW1;Q9NYB9;Q92558; experiment: membrane recruitment assay on supported lipid bilayers (TIRF microscopy); settings: WT EGFP-WRC; parent value is Rac1 WT loaded with GMPPNP (Rac1 WT GDP bar est. 0.045); parent: est. 0.23; read off a plot
substance,measurement,setting,value
"EGFP-tagged WRC, wild type (Sra1, Nap1, MBP-EGFP-HSPC300, MBP-Abi2(1-158), MBP-WAVE1(1-230)) (from UniProt Q7L576;Q9Y2A7;Q8WUW1;Q9NYB9;Q92558) C179R",response,[1],0.36
"ΔWRC230 with Sra1 C179R (Sra1, Nap1, HSPC300, MBP-Abi2(1-158), MBP-WAVE1(1-230)), Q7L576 1-1253; Q9Y2A7 1-1128; Q8WUW1 1-75; Q9NYB9 1-158; Q92558 1-230",pKd,[2],6.70
same,pKd,[3],6.58
same,pKd,[4],6.84
mCherry-Rac1-His8 wild type (GMPPNP) Q61L; P29S,response,[5],0.72
"ΔWRC230 with Sra1 Y967A (Sra1, Nap1, HSPC300, MBP-Abi2(1-158), MBP-WAVE1(1-230)), Q7L576 1-1253; Q9Y2A7 1-1128; Q8WUW1 1-75; Q9NYB9 1-158; Q92558 1-230","KD,A (A Site, first WRC, GST-dimer model)",[3],11500 nM
same,"KD,A (A Site, single-site model)",[3],10800 nM
same,"KD,A (A Site, two-site model)",[3],9600 nM
same,"KD,A’ (A Site of the second WRC, GST-dimer model)",[3],33 nM
"EGFP-tagged WRC, wild type (Sra1, Nap1, MBP-EGFP-HSPC300, MBP-Abi2(1-158), MBP-WAVE1(1-230)) (from UniProt Q7L576;Q9Y2A7;Q8WUW1;Q9NYB9;Q92558) Y967A",response,[1],0.12
"EGFP-tagged WRC, wild type (Sra1, Nap1, MBP-EGFP-HSPC300, MBP-Abi2(1-158), MBP-WAVE1(1-230)) (from UniProt Q7L576;Q9Y2A7;Q8WUW1;Q9NYB9;Q92558) S969F",response,[1],0.8
"ΔWRC230, wild type (Sra1, Nap1, HSPC300, MBP-Abi2(1-158), MBP-WAVE1(1-230)), Q7L576 1-1253; Q9Y2A7 1-1128; Q8WUW1 1-75; Q9NYB9 1-158; Q92558 1-230",pKd,[2],7.17
same,"KD,A(D) (A Site of the D Site-bound WRC, sequential two-site model)",[3],262 nM
same,"KD,D (D Site, sequential two-site model)",[3],169 nM
same,"KD,D (D Site, single-site model)",[3],106 nM
